Test results as given in the supplement of paper PMC9112550, “Optimization of the antimicrobial peptide Bac7 by deep mutational scanning” (BMC Biology, 2022).

System: Escherichia coli TOP10
Assay: shrunken log2 fold change of peptide-encoding DNA abundance (4.5 h post-induction vs induction); higher = less antimicrobial activity (less host growth inhibition)
Details: time post-induction: 4.5 h; library: site-saturation at positions 5, 18, 19, 20
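Also: peptides expressed intracellularly from a pBAD plasmid library in pooled LB shake-flask culture, induced with 0.3% L-arabinose, DNA abundance read by NGS, three biological replicates, DESeq2 with apeglm shrinkage.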

Sequence | shrunken log2 fold change
RRIRSRPPRLPRPRPRPGLIPRP | 0.142
RRIRRRPPRLPRPRPRPYEEPRP | -0.3
RRIRKRPPRLPRPRPRPPFNPRP | 0.0386
RRIRCRPPRLPRPRPRPAVIPRP | -0.383
RRIRWRPPRLPRPRPRPHPLPRP | -0.0381
RRIRDRPPRLPRPRPRPVDQPRP | -0.131
RRIRCRPPRLPRPRPRPPWSPRP | 0.175
RRIRTRPPRLPRPRPRPEAIPRP | -0.00172
RRIRFRPPRLPRPRPRPMDIPRP | -0.0635
RRIRTRPPRLPRPRPRPKEYPRP | -1.07
RRIRVRPPRLPRPRPRPDMAPRP | 0.00912
RRIRCRPPRLPRPRPRPDVMPRP | -0.101
RRIRLRPPRLPRPRPRPICSPRP | -0.0252
RRIRRRPPRLPRPRPRPFTMPRP | -0.198
RRIRNRPPRLPRPRPRPMLPPRP | 0.00241
RRIRLRPPRLPRPRPRPPQCPRP | -0.313
RRIRFRPPRLPRPRPRPCYEPRP | -0.228
RRIRLRPPRLPRPRPRPWNGPRP | -0.217
RRIRQRPPRLPRPRPRPKANPRP | 0.0666
RRIRYRPPRLPRPRPRPDQTPRP | 0.00902
RRIRTRPPRLPRPRPRPCTGPRP | -0.0103
RRIRARPPRLPRPRPRPCKKPRP | -0.0968
RRIRGRPPRLPRPRPRPQMWPRP | 0.891
RRIRSRPPRLPRPRPRPPGDPRP | 0.344
RRIRGRPPRLPRPRPRPHIVPRP | 0.106

Sequence | shrunken log2 fold change
RRIRPRPPRLPRPRPRPEGAPRP | 0.713
RRIRNRPPRLPRPRPRPACRPRP | 0.4
RRIRDRPPRLPRPRPRPVTVPRP | -0.135
RRIRIRPPRLPRPRPRPMGRPRP | 0.126
RRIRVRPPRLPRPRPRPSDEPRP | -0.463
RRIRTRPPRLPRPRPRPPFRPRP | 0.693
RRIRVRPPRLPRPRPRPGIFPRP | -0.0463
RRIRRRPPRLPRPRPRPRMIPRP | -0.136
RRIRARPPRLPRPRPRPEVKPRP | 0.123
RRIRCRPPRLPRPRPRPLPWPRP | 0.195
RRIRCRPPRLPRPRPRPRVSPRP | 0.064
RRIRCRPPRLPRPRPRPRLCPRP | 0.427
RRIRTRPPRLPRPRPRPVLQPRP | 4.38
RRIRARPPRLPRPRPRPQKTPRP | 0.0194
RRIRARPPRLPRPRPRPPPEPRP | 1.24
RRIRERPPRLPRPRPRPNMEPRP | -0.384
RRIRLRPPRLPRPRPRPTPYPRP | -0.00235
RRIRIRPPRLPRPRPRPDHIPRP | -0.0811
RRIRMRPPRLPRPRPRPDRDPRP | 0.353
RRIRPRPPRLPRPRPRPHQAPRP | 0.0618
RRIRSRPPRLPRPRPRPPACPRP | 0.185
RRIRVRPPRLPRPRPRPYLKPRP | -0.0795
RRIRSRPPRLPRPRPRPTAMPRP | 0.4
RRIRHRPPRLPRPRPRPHHFPRP | -0.0916
RRIRYRPPRLPRPRPRPMKIPRP | -0.0574
